Positions of bridges follow the written chain, without caps; N, C: chain ends. Non-standard residues stand in square brackets, D forms with d. No end group written: not given here.
Experiments:
Assay type in all cases: physicochemical
[1] = Thermal denaturation monitored by CD spectroscopy; details: CD wavelength scans, heated to 95° C. and cooled back; 10 mM sodium phosphate buffer (pH 7.0)
Procedure: (§1) The stability of the designs to thermal and chemical denaturation was assessed by CD spectroscopy. Samples were heated to 95° C. (FIG. 2c), or incubated with increasing concentrations of guanidinium hydrochloride (GdnHCl) (FIG. 2d). The contribution of disulfide bonds to protein folding was assessed by incubating samples with a ˜100-fold molar excess of the reductant tris (2-carboxyethyl) phosphine (TCEP).
(§2) Circular dichroism (CD) wavelength and temperature scans were recorded on AVIV model 420 or Jasco J-1500 CD spectrometer. For thermal denaturation, peptides samples were prepared at 0.07-0.2 mg/ml final concentration in 10 mM sodium phosphate buffer (pH 7.0). Wavelength scans from 195 nm to 260 nm were recorded at 25° C., 55° C., 95° C., and again after cooling back to 25° C. For chemical denaturation experiments, samples for each peptide were prepared in the presence of 0 M to 6 M GdnHCl concentrations. The concentration of GdnHCl was measured by refractometry. Peptide samples were also prepared in the presence of 2.5 mM TCEP (TCEP was pre-equilibrated to pH 7.0 prior to addition), and incubated for 3 hours. Peptide concentrations were the same across all samples. Wavelength scans from 190 nm to 260 nm were recorded for each sample in 0.1 cm cuvette.

[2] = Chemical denaturation with guanidinium hydrochloride (GdnHCl) monitored by CD spectroscopy; details: 0 M to 6 M GdnHCl
Procedure: as §1, §2

[3] = Reduction of disulfide bonds with TCEP, folding monitored by CD spectroscopy; details: 2.5 mM TCEP (~100-fold molar excess), incubated for 3 hours
Procedure: as §1, §2

[4] = NMR secondary 1Hα chemical shifts at a range of temperatures
Procedure: FIG. 19: Secondary ^1Hα chemical shifts at a range of temperatures for peptide NC_cHLHR_D1 (SEQ ID NO:09). NMR spectra were collected at 25° C. (black bars), 55° C. (blue bars), 75° C. (red bars), and again after cooling to 25° C. (green bars).
Each non-canonical peptide (1 mg) was dissolved in […] of 10% D20/90% H2O or 100% D2O (˜pH 4). NMR spectra were recorded at 298K on a Bruker Avance-600 spectrometer. Two-dimensional NMR experiments included TOCSY with an […] MLEV-17 spin lock, NOESY (200 ms mixing time), ECOSY, as well as natural-abundance ^13C and ^15N HSQC. Solvent suppression was achieved using excitation sculpting. Spectra were processed using Topspin 2.1 then analyzed using CcpNmr Analysis. Chemical shifts were referenced to internal 2,2-dimethyl-2-silapentane-5-sulfonate (DSS).

Substance | stability to thermal denaturation (CD spectra) [1] | stability to chemical denaturation (CD spectra) [2] | folding / secondary structure in the presence of the reductant TCEP (CD spectra) [3] | change of secondary 1Hα chemical shifts (secondary structure) on heating ([4]; NMR spectra at 25° C., 55° C., 75° C.) | aggregation or irreversible conformation change on heating (secondary chemical shifts after cooling) ([4]; NMR, again after cooling to 25° C.)
AEDCERIRKELEKNPNDEIKKKLEKCQA [gHH_44] | resistant to thermal denaturation | – | – | – | –
CKQRRRYRGSEEECRKYAEELSRRTGCEVEVECET [gEHE_06] | thermally and chemically stable | thermally and chemically stable | remained folded in the presence of TCEP | – | –
CQTWRrVSPEECRKYKEEYnCVRCTE (CQTWR[dR]VSPEECRKYKEEY[dN]CVRCTE; disulfide 1-21, 12-24) [NC_EHE_D1] | only a small decrease | – | – | – | –
CRCHITSSCVRVEGDNGEEYRYCSSDEEDLRRFCKEMQKQC [gEEEH_04] | resistant to both thermal and chemical denaturation | resistant to both thermal and chemical denaturation | – | – | –
EERRYKRCGQDEERVRRECKERGERQNCQYQIRKEGNCYVCEIRC [gEHEE_06] | thermostable | completely resistant to chemical denaturation | – | – | –
HDPEKRKECEKKYTDPKKREECKRKA (cyclo(HDPEKRKECEKKYTDPKKREECKRKA); disulfide 9-22; not fully specified (some residues)) [NC_cHH_D1] | – | do not chemically denature | lost secondary structure | – | –
NDKCKELKKRYPNCEVRCDpPRYEVHC (NDKCKELKKRYPNCEVRCD[dP]PRYEVHC; disulfide 14-27, 4-18; not fully specified; printed as NDKCKELKKRYPNCEVRCDpPRYEVHC) [NC_HEE_D1] | no loss in secondary structure | does not denature in 6 M GdnHCl | – | – | –
NPEDCRQDPEANKSPEECKKLK (cyclo(NPEDCRQDPEANKSPEECKKLK); disulfide 5-18; not fully specified (some residues)) [NC_cHHH_D1] | – | some loss of secondary structure in 6M GdnHCl | lost secondary structure | – | –
NPELQRKCKELdTRpeaerkcreeSD (cyclo(NPELQRKCKEL[dD]TR[dP][dE][dA][dE][dR][dK][dC][dR][dE][dE]SD); disulfide 8-21 (inferred)) [NC_cHLHR_D1] | no change was observable on heating to 95 °C | – | – | no significant loss of secondary structure resulting from heating | not aggregation-prone or otherwise prone to irreversible conformation changes on heating
PCECDVNGETYTVSSSEECERLCRKLGVTNCRVHCG [gEEHE_02] | impervious to both thermal and chemical denaturation | impervious to both thermal and chemical denaturation | remained partially folded in the presence of TCEP | – | –
PCEDLKERLKKLGMSEECRQRLEKMCKEGTSEDAERMARNCES [gHHH_06] | partially unfolds upon heating to 95 °C but returns to the folded state upon cooling | – | – | – | –
PVTWCVRIpPTVRCTVRp (cyclo(PVTWCVRI[dP]PTVRCTVR[dP]); disulfide 5-14 (inferred)) [NC_cEE_D1] | – | do not chemically denature | not changed by reduction of the central disulfide bond | – | –
QCYTFRSECTNKEFTVCRPNPEEVEKEARRTKEEECRK [gEEH_04] | less stable than the others to thermal denaturation | – | – | – | –
SQETRKKCTEMKKKFKNCEVRCDESNHCVEVRCSDTKYTLC [gHEEE_02] | resistant to both thermal and chemical denaturation | resistant to both thermal and chemical denaturation | – | – | –
TCEIRVTDTHCKVHCGTQEYKVPPGRTLKVGNCRFTYHDTTCTVECR [gEEEEEE_02] | resistant to both thermal and chemical denaturation | resistant to both thermal and chemical denaturation | – | – | –

Reference: US20210134388A1, “Hyperstable Constrained Peptides and Their Design” (University of Washington, priority 2016, published 2021)
